Test results published in US20230131339A1, “EPI-X4 BASED PEPTIDES AND DERIVATIVES THEREOF” (Universitaet Ulm, priority 2020, published 2023).
Like-named read-outs stand apart in the source and are kept apart here. Where a SMILES comes first, the peptide text is derived from it. Where no end group is shown, it is not given here. Side-chain parts run from the residue outwards. [ ]: non-standard residue; d: D form. The star is where a group is joined. DOTA = O=C(O)CN1CCN(CC(=O)O)CCN(CC(=O)*)CCN(CC(=O)O)CC1; Palmitoyl = CCCCCCCCCCCCCCCC(=O)*

Key:
[1] = Stability assay in human S9 liver fractions; conditions: with cofactors
Method: Further, the stability of peptides in human S9 liver fractions (in the presence of cofactors) was tested (FIG. 12). […] To simulate and predict hepatic metabolic clearance, peptides were added to human S9 liver fractions. […] For each peptide, three independent experiments were performed.
Stability assay in human S9 liver fractions. Pooled human liver S9 fractions were obtained from Thermo Fisher Scientific at a total protein concentration of 20 mg/ml. Fractions were stored in 25 μl aliquots at −80° C. For stability experiments, they were diluted to a final concentration of 0.5 mg/ml in Tris buffer. Cofactors (or buffer) were added immediately before start of the experiment (NADPH: 1 mM, UDPGA: 0.5 mM, GSH: 2.5 mM, PAPS: 0.05 mg/ml, Sigma Aldrich). The reaction was started by adding peptides or compounds at a concentration of 20 μM to the mixture and gentle agitation at 37° C. Determination of enzymatic stability was performed as described for plasma.

[2] = Functional stability assay in human plasma
Method: Fourth, the stability of peptides in human plasma and whole human blood was tested (FIG. 4). The functional stability of EPI-X4 (SEQ ID NO.: 1) derivatives was screened using a CXCR4 antibody-based screening approach. Peptides were diluted in full human plasma or blood (>99%) and the functional activity was then measured after either 2 hours or 8 hours and compared to a sample that was not incubated in plasma or blood.
In this test, the peptides were incubated in human plasma for a certain time period.
Stability assay. Whole blood was collected from healthy donors in EDTA tubes and directly used or subsequently centrifuged for 15 min at 2,500×g to obtain plasma. Plasma from 6 donors was pooled and stored in aliquots at −80° C. Compounds were 200-fold diluted in human plasma or whole human blood to reach final concentrations of 20 μM. The t=0 sample was immediately taken and stored at −80° C. Plasma/compound or blood/compound mixture was then transferred to 37° C. and shook at 350 rpm. At given time points samples were taken and stored at −80° C.°. For measuring the functional activity of the plasma/peptide samples, the mixtures were thawed and diluted in ice cold PBS. 12G5-APC antibody competition was then performed as described before. For blood/peptide functional stability, samples were thawed and centrifuged at 14,000 rpm to remove cells and debris. The supernatant was then diluted in PBS and 12G5-antibody competition assay was performed. After the 2 hours incubation, the cells were washed and 50 μl of 1-step-Fix/Lyse solution (Thermo Fisher #00-5333-54) was added for 15 minutes at room temperature. Afterwards cells were washed again and analyzed for bound antibody.

[3] = test system: CXCL12-induced ERK signaling; experiment: ERK/AKT signaling assay in SupT1 cells: ERK phosphorylation; assay type: cell-based; conditions: 1 μM
Method: Third, the activity of the claimed EPI-X4 derivatives was tested by the effect on CXCL12/CXCR4-mediated ERK (Extracellular-signal Regulated Kinases) and AKT (a serine/threonine-protein kinase) signaling (FIG. 3). In that assay CXCR4 expressing cells are stimulated with the CXCR4 chemokine-ligand CXCL12, which subsequently leads to phosphorylation of ERK and AKT. Preincubation of cells with CXCR4-antagonists blocks those pathways. […] Two or three independent experiments were carried out in triplicates for each peptide in each assay. The error bars refer to the standard deviation.
ERK/AKT signaling assay. CXCL12 induced ERK and AKT phosphorylation was determined in SupT1 cells. For this, 100,000 cells were seeded per well in a 96-V well plate in 100 μl medium supplemented with 1% FCS. Cells were incubated for 2 hours at 37° C. before 5 μl of compounds were added. After 15 min incubation at 37° C. cells were stimulated by adding 5 μl CXCL12 diluted in PBS to reach a final concentration of 100 ng/ml. Cells were further incubated for 2 min before the reaction was stopped by adding 20 μl of 10% PFA. Cells were fixed for 15 min at 4° C. before PFA was removed and cells permeabilized by adding 100 μl ice cold methanol. After 15 min at 4° C. the methanol was removed, cells were washed and 30 μl primary antibody was added (phospho-p44/42 MAPK (Erk1) (Tyr204)/(Erk2) (Tyr187) (D1H6G) mouse mAb #5726; phosphor-Akt (Ser473) (193H12) rabbit mAb #4058 Cell Signaling) for 1 hour at 4° C. After the antibody was removed and cells were washed secondary antibody was added for 30 min. Cells were washed afterwards and subsequently analyzed by flow cytometry.

[4] = test system: CXCL12-induced AKT signaling; experiment: ERK/AKT signaling assay in SupT1 cells: AKT phosphorylation; assay type: cell-based; conditions: 10 μM
In short: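 SupT1 cells in 1% FCS medium preincubated 15 min at 37 °C with compound, then stimulated 2 min with CXCL12 (100 ng/ml final). PFA-fixed, methanol-permeabilized cells stained for phospho-ERK1/2 (Tyr204/Tyr187) or phospho-AKT (Ser473) and read by flow cytometry; two or three independent experiments in triplicate.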

[5] = Stability of radiolabeled conjugates in buffer (radiochemical purity over time); assay type: physicochemical; conditions: NH4-acetate buffer pH 5.2, ethanol, room temperature
Method: The stability of ^177Lu/^68Ga-labeled DOTA-conjugated peptides in ammonium acetate buffer (0.4 M, pH 5.2) and sodium acetate buffer (0.2 M, pH 4-4.5) was assessed by determining the radiochemical purity (RCP) of each radiolabeled conjugate at different time points (0, 1, 2, 4, and 24 h for ^177Lu-complexes and at 0, 1 and 2 h for ^68Ga-complexes) at room temperature. For this, an aliquot of labeling solution was stored at room temperature. RP-HPLC injections were consecutively performed at the desired time points.
Radiolysis-induced instability of [^177Lu]Lu-labeled DOTA-conjugated peptides over time was tracked by determining the radiochemical purity (Table 3). Results are means±standard deviation from a minimum of two separate experiments.

[6] = Lipophilicity, shake-flask method (n-octanol/PBS pH 7.4); assay type: physicochemical
Method: The hydrophilic/lipophilic character of the ^177Lu/^68Ga-labeled conjugates was determined by the “shake-flask” method. To a pre-saturated solution containing 500 μL of n-octanol and 500 μL of phosphate-buffered saline (PBS) at pH 7.4, 10 μL of 1 picomol ^177Lu/^68Ga-labeled conjugates was added. The solutions were vortexed for 1 h to reach equilibrium and then centrifuged (3000 rpm) for 10 min. Hundred μl of the sample was removed from each phase and measured in a γ-counter. The partition coefficient was calculated as the average of the logarithmic values (n=3) of the ratio between the radioactivity in the organic and the PBS phase. Results are means±standard deviation from a minimum of two separate experiments. ^177Lu/^68Ga-labeled Pentixather, which is a known CXCR4-directed endoradiotherapeutic agent, is used as reference molecule.

[7] = test system: CXCR4-tropic X4-HIV-1 (NL4-3); assay type: cell-based; conditions: CXCR4-tropic X4- (NL4-3)
Method: The activity of the peptides was estimated by different assays.
The X4-HIV inhibition assay is designed to measure the activity of the inventive peptides by their efficiency of blocking the infection of tissue culture cells by CXCR4-tropic HIV-1 variants.
HIV-1 inhibition assay. […] For infection of TZM-bl cells in presence of inhibitors, cells were seeded at a density of 1×10^5 cells/ml in 70 μl DMEM containing 2.5% FCS. Compounds were diluted in PBS and 10 μl were added. After 15 minutes of incubation cells were inoculated with 20 μl of diluted virus. Infection rates were determined three days later using Gal-Screen system (Applied Biosystems).

[8] = test system: CXCL12 induced migration of T-cells; experiment: Migration assay (transwell, Jurkat cells); assay type: cell-based
Method: For each peptide, three independent experiments were performed. The error bars refer to the standard deviation.
Migration assay. Migration assays were performed using 96-well transwell assay plates (Corning Incorporated, Kennebunk, Me., USA) with 5 μm polycarbonate filters. […] Next, 75 μL (0.5×10^5 cells) of Jurkat cells (in assay buffer), together with/without the compounds, were added into the upper chambers. After 4 h at 37° C. (5% CO2), 100 μL of the lower chambers were transferred to a fresh 96 V-well plate and analyzed with Cell-Titer-Glo® assay (Promega, Madison, Wis., USA). The percentage of migrated cells was calculated as described by Balabanian et al. (2005). In order to obtain the relative migration in %, the percentage of migrated cells were normalized to the CXCL12-only control.

[9] = mice, i.v. tail vein, 4 hours post injection
Method: Peptides were injected into the tail vein of mice. 4 hours post injection, mice were sacrificed and blood taken by heart punctation. Plasma was obtained by centrifugation and tested for remaining activity in antibody competition assay. As control, peptide was spiked into native plasma (ex vivo). IC50 values were determined by non-linear regression assuming 1.8 ml in vivo blood volume. Remaining activity was determined by IC50 (ex vivo)/IC50 (in vivo)×100. The tested peptides included JM #143 (SEQ ID NO.: 54), JM #144 (SEQ ID NO.: 55), JM #192 (SEQ ID NO.: 89), JM #180 (SEQ ID NO.: 77), JM #194 (SEQ ID NO.: 91), JM #235 (SEQ ID NO.: 130), JM #198 (SEQ ID NO.: 95), JM #255 (SEQ ID NO.: 150), JM #257 (SEQ ID NO.: 152) and JM #204 (SEQ ID NO.: 99). […] Shown are data from 2 individual mice measured in duplicates.
In vivo stability assay. 100 μl of a 700 μg/ml stock solution of the peptide in 0.9% NaCl was intravenously injected in the tail vein of C57BL/6NCrl (BL6) mice. 4 hours post injection, mice were killed by cervical dislocation. Mouse plasma was obtained by heart punctation. Blood was 19:1 diluted with 0.16 M NaEDTA and centrifuged at 2000×g for 20 min at 4° C. to obtain plasma. Plasma was stored at −80° C. till remaining peptide activity in the plasma was determined by 12G5 antibody competition assay.

[10] = test system: CXCL12 induced Ca2+-signalling; experiment: Ca++ signaling in BCR-ABL-transformed murine bone marrow cells; assay type: cell-based; conditions: 1 μM
Method: Fifth, it was shown that the peptide derivatives inhibit calcium-signaling. CXCL12 stimulation of CXCR4 expressing B-cells leads to a strong calcium-release. In the presence of CXCR4 antagonists this response is reduced.
For calcium measurement, 1×10^6 BCR-ABL-transformed murine bone marrow cells were incubated with 5 μg/mL of Indo-1 (Molecular Probes) and 0.5 μg/mL of pluronic F-127 (Molecular Probes) in Iscove's medium supplemented with 1% FCS (Pan Biotech) at 37° C. for 45 min. Cells were then washed by centrifugation and the cell pellets were resuspended in Iscove's medium with 1% FCS and treated with the EPI-X4 derivatives (1 μM or 0.5 μM) for 10 minutes at room temperature. Cells were pre-warmed for 5 minutes at 37° C. Calcium flux was assessed by FACS measurement at BD LSR Fortessa. After 30 seconds of baseline recording, CXCR4-dependent calcium signaling was determined by stimulating with 100 ng/ml of mouse SDF-1a (PeproTech).

Compound | Radiochemical purity ([5]; time point 0 h) [%] | Radiochemical purity ([5]; time point 1 h) [%] | Radiochemical purity ([5]; time point 2 h) [%] | Radiochemical purity ([5]; time point 4 h) [%] | Radiochemical purity ([5]; time point 24 h) [%] | log DO/PBS pH7.4 [6] | further results
CC[C@H](C)[C@H](N)C(=O)N[C@H](C(=O)N[C@@H](CCCNC(=N)N)C(=O)N[C@@H](Cc1c[nH]c2ccccc12)C(=O)N[C@@H](CO)C(=O)N[C@@H](CCCCN)C(=O)N[C@@H](CCCCN)C(=O)N[C@H](C(=O)N1CCC[C@H]1C(=O)N[C@@H](CS)C(=O)N[C@H](C(=O)N[C@@H](CO)C(=O)O)C(C)C)C(C)C)C(C)C [WSC02, reference compound] (H-IVRWSKKVPCVS-OH; C-terminus assumed) | – | – | – | – | – | – | remaining activity in human S9 liver fractions after 2 hours [1]: readily inactivated by liver enzymes; remaining (relative) activity after 2 hours of plasma incubation ([2]; human plasma, 2 hours): completely inactive; reduction of CXCL12-induced ERK signaling [3]: 20%; reduction of CXCL12-induced AKT signaling [4]: about 50%
[^177Lu]Lu-DOTA-JM#118: ^177Lu-labeled DOTA-JM #118 (SEQ ID NO.: 166) (ILRWSRK(DOTA)-NH2; also: 177Lu complex of DOTA) | 99 ± 0 | 98 ± 0 | 97 ± 1 | 95 ± 1 | 80 ± 2 | −3.12 ± 0.43 | Radiochemical purity ([5]; time point 24 h, listed as [^177Lu]Lu-DOTA-JM #118): 80±2%
CCCCCCCCCCCCCCCC(=O)N[C@@H](CCC(=O)O)C(=O)NCCCC[C@H](NC(=O)[C@H](CCCNC(=N)N)NC(=O)[C@H](CO)NC(=O)[C@H](Cc1c[nH]c2ccccc12)NC(=O)[C@H](CCCNC(=N)N)NC(=O)[C@H](CC(C)C)NC(=O)[C@@H](N)[C@@H](C)CC)C(N)=O [JM #192, ILRWSRK(Glu-Pal)-NH2] (H-ILRWSRK([Glu-Palmitoyl])-NH2; N-terminus assumed) | – | – | – | – | – | – | remaining activity in human S9 liver fractions after 2 hours [1]: faster inactivation; remaining activity in human S9 liver fractions after 8 hours [1]: more rapidly degraded compared to their N-terminally modified variants; IC50 [7]: 2 nM; inhibition of CXCL12 induced migration of T-cells (in words) [8]: high activity; remaining activity in plasma in vivo 4 hours post injection [9]: completely lost; reduction of CXCL12 induced calcium-signaling [10]: almost completely blocked calcium-signaling
[^177Lu]Lu-DOTA-K-JM#29: ^177Lu-labeled DOTA-K-JM #29 (SEQ ID NO.: 165) ([dL]LRWSRKMPCVSK(DOTA); also: 177Lu complex of DOTA) | 98 ± 1 | 96 ± 3 | 92 ± 9 | 90 ± 9 | – | −1.49 ± 0.29 | –
[^177Lu]Lu-DOTA-K-JM#21: ^177Lu-labeled DOTA-K-JM #21 (SEQ ID NO.: 101) (ILRWSRKLPCVSK(DOTA); also: 177Lu chelated) | – | 93 ± 3 | 92 ± 6 | 90 ± 7 | 62 ± 13 | −1.91 ± 0.24 | –
[^177Lu]Lu-DOTA-K-JM#122: ^177Lu-labeled DOTA-K-JM #122 (SEQ ID NO.: 102) (ILRWSRKLPSVSK(DOTA); also: 177Lu complex of DOTA) | 97 ± 0 | 97 ± 0 | 96 ± 1 | 96 ± 1 | 78 ± 1 | −3.23 ± 0.23 | Radiochemical purity ([5]; time point 24 h, listed as [^177Lu]Lu-DOTA-K-JM #207): 78±1%; log DO/PBS pH7.4 ([6]; listed as [^177Lu]Lu-DOTA-K-JM #122): −3.23±0.23
CC[C@@H](C)[C@@H](N)C(=O)N[C@@H](CC(C)C)C(=O)N[C@@H](CCCNC(=N)N)C(=O)N[C@@H](Cc1c[nH]c2ccccc12)C(=O)N[C@@H](CO)C(=O)N[C@@H](CCCNC(=N)N)C(=O)N[C@@H](CCCCN)C(N)=O [JM #173, d-ILRWSRK-NH2] (H-[dI]LRWSRK-NH2) | – | – | – | – | – | – | remaining activity in human S9 liver fractions after 8 hours [1]: about 14%; remaining (relative) activity after 8 hours of plasma incubation ([2]; human plasma, 8 hours): 100%; functional stability in human plasma (in words) ([2]; human, plasma): completely resistant to plasma enzymes
